Data from patent US20140072592A1.
Ends that are not written are not given here.

Target: anti-SPAPP monoclonal antibody CM61
Experiment: competition EIA: SPAPP in 83% human plasma competes with plate-coated SPAPP for 10 ng/ml CM61

- lowest antigen concentration detectable by competition: > 200 pg/mL
Binder: MLPGLALLLLAAWTARA-OH [amyloid precursor protein signal peptide (SPAPP), …-COOH]
